From paper PMC8131599

Experiments:
[1] = target: EV-D68 mature virion, strain US/MO/14-18947 (clade B) (enterovirus D68 strain US/MO/14-18947)
[2] = target: EV-D68 mature virion, strain US/MO/14-18947 (clade B) (enterovirus D68 strain US/MO/14-18947); assay: BLI

Substance | IC50 of neutralization of EV-D68 strain 18947 on RD cells (cell viability, CellTiter-Glo) [1] [ng/mL] | neutralization concentration (lowest antibody concentration that fully inhibits cytopathic effect) against strain 18947 [1] [µg/mL] | Kd [2] [nM] | koff [2] [s⁻¹]
anti-EV-D68 MAb 8F12 (murine, IgG2b) (antibody) | 4 | 0.06 |  | 
anti-EV-D68 MAb 8F12 (murine, IgG2b) (from UniProt P01867) |  |  | 0.92 | 0.00035
